T1: wild-type glutathione S-transferase (GST)-EMD LCD fusion protein
T1 sequence (P50402 whole entry, species assumed, looked up): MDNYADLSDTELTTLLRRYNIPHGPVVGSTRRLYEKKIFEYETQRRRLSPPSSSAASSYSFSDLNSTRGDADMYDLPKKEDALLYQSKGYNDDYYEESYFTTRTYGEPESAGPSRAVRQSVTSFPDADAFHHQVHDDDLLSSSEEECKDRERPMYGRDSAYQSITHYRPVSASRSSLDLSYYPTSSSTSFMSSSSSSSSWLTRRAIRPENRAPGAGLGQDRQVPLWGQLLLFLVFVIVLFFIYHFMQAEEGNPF


biological target: T1, wild-type glutathione S-transferase (GST)-EMD LCD fusion protein; assay: GST pulldown, Western blot against HA, densitometry; details: HA-tagged 3xPro EMD LCD prey 50 nM; n=3; parent: est. 0.26; read off a plot

| Molecule | response [Fraction IP] |
| --- | --- |
| HA-tagged EMD LCD, wild-type (recombinant) 3xPro 203-205 (label as printed; insertion of three prolines, not substitution) | 0.18 |
| HA-tagged EMD LCD, wild-type (recombinant) 3xPro 208-211 (insertion, not substitution: ...aa208(Pro)aa209(Pro)aa210(Pro)aa211...) | 0.21 |
| HA-tagged EMD LCD, wild-type (recombinant) 3xPro 178-181 (insertion, not substitution: ...aa178(Pro)aa179(Pro)aa180(Pro)aa181...) | 0.21 |

biological target: P07196; assay: turbidity (absorbance at 395 nm); synthetic NEFL head domain 5xD ChIM library, 100 μM LCD (n=3); details: other: turbidity (absorbance at 395 nm)

| Molecule | fold decrease in turbidity relative to wild-type |
| --- | --- |
| synthetic NEFL head domain 5xD_(22-30) (protein) SSFSYEPYYSTSYKRRYVETPRVHISSVRCGYSTARSAYSSYSAPVSSSLSVRRSYSSSSGSLMPSLENLELS | with 9.1-fold and 20-fold decreases in turbidity relative to wild-type, respectively |
| synthetic NEFL head domain 5xD_(33-41) (protein) SSFSYEPYYSTSYKRRYVETPRVHISSVRCGYSTARSAYSSYSAPVSSSLSVRRSYSSSSGSLMPSLENLELS | with 9.1-fold and 20-fold decreases in turbidity relative to wild-type, respectively |
| synthetic NEFL head domain 5xD_(63-71) (protein) SSFSYEPYYSTSYKRRYVETPRVHISSVRCGYSTARSAYSSYSAPVSSSLSVRRSYSSSSGSLMPSLENLELS | with 2.7-fold, 1.6-fold, and 1-fold relative decreases in turbidity, respectively |
| synthetic NEFL head domain 5xD_(43-51) (protein) SSFSYEPYYSTSYKRRYVETPRVHISSVRCGYSTARSAYSSYSAPVSSSLSVRRSYSSSSGSLMPSLENLELS | with 2.7-fold, 1.6-fold, and 1-fold relative decreases in turbidity, respectively |
| synthetic NEFL head domain 5xD_(53-63) (protein) SSFSYEPYYSTSYKRRYVETPRVHISSVRCGYSTARSAYSSYSAPVSSSLSVRRSYSSSSGSLMPSLENLELS | with 2.7-fold, 1.6-fold, and 1-fold relative decreases in turbidity, respectively |

biological target: P50402; assay: turbidity (absorbance at 395 nm); untagged semi-synthetic EMD LCD 3xD ChIM library, 50 μM LCD (n=3); details: other: turbidity (absorbance at 395 nm)

| Molecule | fold decrease in turbidity relative to wild-type |
| --- | --- |
| untagged semi-synthetic EMD LCD 3xD_(195-199) (protein) RRLSPPSSSAASSYSFSDLNSTRGDADMYDLPKKEDALLYQSKGYNDDYYEESYFTTRTYGEPESAGPSRAVRQSVTSFPDADAFHHQVHDDDLLSSSEEECKDRERPMYGRDSAYQSITHYRPVSASRSSLDLSYYPTSSSTCFMSSSSSSSSWLTRRAIRPENRAPGAGLGQER | 13.3-, 2.8-, and 2.1-fold decreases in turbidity |
| untagged semi-synthetic EMD LCD 3xD_(203-207) (protein) RRLSPPSSSAASSYSFSDLNSTRGDADMYDLPKKEDALLYQSKGYNDDYYEESYFTTRTYGEPESAGPSRAVRQSVTSFPDADAFHHQVHDDDLLSSSEEECKDRERPMYGRDSAYQSITHYRPVSASRSSLDLSYYPTSSSTCFMSSSSSSSSWLTRRAIRPENRAPGAGLGQER | displays a modest 1.4-fold decrease in turbidity |
| untagged semi-synthetic EMD LCD 3xD_(191-195) (protein) RRLSPPSSSAASSYSFSDLNSTRGDADMYDLPKKEDALLYQSKGYNDDYYEESYFTTRTYGEPESAGPSRAVRQSVTSFPDADAFHHQVHDDDLLSSSEEECKDRERPMYGRDSAYQSITHYRPVSASRSSLDLSYYPTSSSTCFMSSSSSSSSWLTRRAIRPENRAPGAGLGQER | 13.3-, 2.8-, and 2.1-fold decreases in turbidity |
| untagged semi-synthetic EMD LCD 3xD_(199-203) (protein) RRLSPPSSSAASSYSFSDLNSTRGDADMYDLPKKEDALLYQSKGYNDDYYEESYFTTRTYGEPESAGPSRAVRQSVTSFPDADAFHHQVHDDDLLSSSEEECKDRERPMYGRDSAYQSITHYRPVSASRSSLDLSYYPTSSSTCFMSSSSSSSSWLTRRAIRPENRAPGAGLGQER | 13.3-, 2.8-, and 2.1-fold decreases in turbidity |

Biological target: the molecule itself
Assay: as above
Details: not given

| Molecule | binding result |
| --- | --- |
| untagged semi-synthetic EMD LCD (residues 46-221), all L- wild-type (domain or fragment, UniProt P50402 46-221, looked up, Emerin (EMD) low-complexity domain, residues 46-221 (P1 46-188 recombinant, P2 189-221 synthetic); P2 made on Rink amide resin (C-terminal amide surmised); source: RP-HPLC purified) RRLSPPSSSAASSYSFSDLNSTRGDADMYDLPKKEDALLYQSKGYNDDYYEESYFTTRTYGEPESAGPSRAVRQSVTSFPDADAFHHQVHDDDLLSSSEEECKDRERPMYGRDSAYQSITHYRPVSASRSSLDLSYYPTSSSTCFMSSSSSSSSWLTRRAIRPENRAPGAGLGQER | binds |

test system: not listed separately; assay: turbidity (absorbance at 395 nm); untagged recombinant EMD LCD 3xPro library, 60 μM LCD, transferred from denaturing to native Tris buffer (n=3); details: other: turbidity (absorbance at 395 nm)

| Molecule | fold decrease in turbidity relative to wild-type |
| --- | --- |
| untagged EMD LCD 3xPro_(193-196) | reduce turbidity by 107.6-, 16.6-, 34.7-, and 14.3-fold, respectively |
| untagged EMD LCD 3xPro_(203-206) | reduce turbidity by 107.6-, 16.6-, 34.7-, and 14.3-fold, respectively |
| untagged EMD LCD 3xPro_(198-201) | reduce turbidity by 107.6-, 16.6-, 34.7-, and 14.3-fold, respectively |
| untagged EMD LCD 3xPro_(188-191) | reduce turbidity by 107.6-, 16.6-, 34.7-, and 14.3-fold, respectively |
| untagged EMD LCD 3xPro_(183-186) | modestly reduces turbidity by 2.8-fold relative to wild-type |

biological target: T1, wild-type glutathione S-transferase (GST)-EMD LCD fusion protein; assay: pull-down; wild-type GST-EMD LCD immobilized on glutathione resin, incubated with HA-tagged EMD LCD prey (50 nM), washed with binding buffer, eluted with GSH; Western blot against HA in eluent relative to input, densitometry (n=3); details: not given

| Molecule | fold reduction of pulldown relative to wild-type [fold] |
| --- | --- |
| HA-tagged EMD LCD 3xPro_(188-191) (domain or fragment) | 5 |
| HA-tagged EMD LCD 3xPro_(183-186) (domain or fragment) | 2.2 |
| HA-tagged EMD LCD 3xPro_(193-196) (domain or fragment) | 5.9 |
| HA-tagged EMD LCD 3xPro_(198-201) (domain or fragment) | 3.4 |

biological target: T1, wild-type glutathione S-transferase (GST)-EMD LCD fusion protein; assay: as above; details: not given; remark: another data set of the same source

| Molecule | fold reduction of pulldown relative to wild-type [fold] |
| --- | --- |
| HA-tagged semi-synthetic EMD LCD 3xD_(191-195) (domain or fragment, three D-amino acids at alternating positions within 191-195) RRLSPPSSSAASSYSFSDLNSTRGDADMYDLPKKEDALLYQSKGYNDDYYEESYFTTRTYGEPESAGPSRAVRQSVTSFPDADAFHHQVHDDDLLSSSEEECKDRERPMYGRDSAYQSITHYRPVSASRSSLDLSYYPTSSSTCFMSSSSSSSSWLTRRAIRPENRAPGAGLGQER | 8.8 |
| HA-tagged semi-synthetic EMD LCD 3xD_(211-215) (domain or fragment, three D-amino acids at alternating positions within 211-215) RRLSPPSSSAASSYSFSDLNSTRGDADMYDLPKKEDALLYQSKGYNDDYYEESYFTTRTYGEPESAGPSRAVRQSVTSFPDADAFHHQVHDDDLLSSSEEECKDRERPMYGRDSAYQSITHYRPVSASRSSLDLSYYPTSSSTCFMSSSSSSSSWLTRRAIRPENRAPGAGLGQER | 1.7 |
| HA-tagged semi-synthetic EMD LCD 3xD_(207-211) (domain or fragment, three D-amino acids at alternating positions within 207-211) RRLSPPSSSAASSYSFSDLNSTRGDADMYDLPKKEDALLYQSKGYNDDYYEESYFTTRTYGEPESAGPSRAVRQSVTSFPDADAFHHQVHDDDLLSSSEEECKDRERPMYGRDSAYQSITHYRPVSASRSSLDLSYYPTSSSTCFMSSSSSSSSWLTRRAIRPENRAPGAGLGQER | 1.8 |
| HA-tagged semi-synthetic EMD LCD 3xD_(195-199) (domain or fragment, three D-amino acids at alternating positions within 195-199) RRLSPPSSSAASSYSFSDLNSTRGDADMYDLPKKEDALLYQSKGYNDDYYEESYFTTRTYGEPESAGPSRAVRQSVTSFPDADAFHHQVHDDDLLSSSEEECKDRERPMYGRDSAYQSITHYRPVSASRSSLDLSYYPTSSSTCFMSSSSSSSSWLTRRAIRPENRAPGAGLGQER | 7.9 |
| HA-tagged semi-synthetic EMD LCD 3xD_(203-207) (domain or fragment, three D-amino acids at alternating positions within 203-207) RRLSPPSSSAASSYSFSDLNSTRGDADMYDLPKKEDALLYQSKGYNDDYYEESYFTTRTYGEPESAGPSRAVRQSVTSFPDADAFHHQVHDDDLLSSSEEECKDRERPMYGRDSAYQSITHYRPVSASRSSLDLSYYPTSSSTCFMSSSSSSSSWLTRRAIRPENRAPGAGLGQER | 3.6 |
| HA-tagged semi-synthetic EMD LCD 3xD_(199-203) (domain or fragment, three D-amino acids at alternating positions within 199-203) RRLSPPSSSAASSYSFSDLNSTRGDADMYDLPKKEDALLYQSKGYNDDYYEESYFTTRTYGEPESAGPSRAVRQSVTSFPDADAFHHQVHDDDLLSSSEEECKDRERPMYGRDSAYQSITHYRPVSASRSSLDLSYYPTSSSTCFMSSSSSSSSWLTRRAIRPENRAPGAGLGQER | 6.2 |
